Assay [1] concerns the target T1, human C1q (human, UniProt P02745 23-245; P02746 28-253; P02747 29-245). The assay is described as follows: cell-based or functional assay.
Assay [2] addresses T1, human C1q. The assay is described as follows: cell-based or functional assay. The source holds these as a separate data set.
The target of assay [3] is T2, Cynomolgus serum derived C1q (cynomolgus monkey, UniProt A0A2K5WJV6 23-243; A0A2K5WNK0 28-253). The assay is described as follows: cell-based or functional assay.
Assay [4] has as its target T2, Cynomolgus serum derived C1q. The assay is described as follows: sandwich ELISA, serum C1q captured by JL-1; the high end is tied to cynomolgus serum by Table 1. From the text:
(§1) Evaluation of binding to serum derived C1q: We compared binding of anti-C1q molecules to C1q from monkey and human serum. Binding to serum derived C1q was preformed using a sandwich ELISA. In this assay, a monoclonal antibody specific to the collagen tail of C1q (JL-1, Abcam) was used to capture the C1q, and then detected using the anti-C1q antibodies, which bind to the globular head groups of C1q. […] Next day, the plates were washed with dPBS (pH 7.4) and blocked with dPBS buffer containing 3% bovine serum albumin (BSA). Diluted serum samples were added to the plates and incubated overnight shaking at 4° C. Human and monkey serum samples were used at 1:2000 dilution in assay buffer, dPBS containing 0.3% BSA and 0.1% tween. Following overnight incubation at 4 C, plates were warmed to room temperature for 2 hours. […] Plates were washed with dPBS with 0.05% tween and then incubated with alkaline phosphatase conjugated anti-human Fc or Kappa antibodies at 1:3000 dilution in assay buffer. Plates were then washed, and detected using an enzyme substrate (T2214, Thermo) and read in a plate reader. Counts were background subtracted and normalized to signal at highest concentration, % normalized values were plotted as a function of concentration for each of the antibodies. Data were fit using a 4-parameter logistic fit to derive $EC50$ of binding and plotted using GraphPad Prism.

Assay [5] shares this target. The assay is described as follows: sandwich ELISA, C1q from cynomolgus serum captured by JL-1.
Text: as §1

The target in assay [6] is T1, human C1q. The assay is described as follows: sandwich ELISA, C1q from human serum captured by JL-1.
Text: as §1

For assay [7], the target named is T1, human C1q. The assay is described as follows: direct ELISA, purified human C1q coated on the plate, luminescence.
Description: Next day, plates are washed with dPBS thrice and blocked with 3% BSA/PBS for 1 hour at room temperature (RT). […] Following incubation for 1 hour at RT, plates are washed 4× with dPBS 0.05% Tween. Then, alkaline phosphatase (AP) conjugated secondary antibodies to human kappa (Abcam) and human FC (Jackson Immunoresearch), respectively at 2000-4000-fold dilution. After an additional 1 hour of incubation at RT, plates are washed 4× with dPBS 0.05% Tween and luminescence signal was developed with AP substrate (#T2214, Thermo Scientific). Luminescence counts were measured using a luminometer (Spectramax i3×, Molecular Devices). Raw counts were fit using a 4-parameter logistic to derive $EC50$ for human C1q binding (Prism, GraphPad).
Assay [8] addresses T1, human C1q. The assay is described as follows: sandwich ELISA, serum C1q captured by JL-1; the low end is tied to human serum by Table 1.
Text: as §1

For assay [9], the target named is T2, Cynomolgus serum derived C1q. The assay is described as follows: sandwich ELISA, serum C1q captured by JL-1; the high end is tied to the single-arm antibody by Table 1 (2.1).
Text: as §1

For assay [10] the target is unchanged. The assay is described as follows: sandwich ELISA, serum C1q captured by JL-1; cynomolgus against human serum.
Text: as §1

T1 sequence (P02745 23-245 limits assumed, chain 1 of 3): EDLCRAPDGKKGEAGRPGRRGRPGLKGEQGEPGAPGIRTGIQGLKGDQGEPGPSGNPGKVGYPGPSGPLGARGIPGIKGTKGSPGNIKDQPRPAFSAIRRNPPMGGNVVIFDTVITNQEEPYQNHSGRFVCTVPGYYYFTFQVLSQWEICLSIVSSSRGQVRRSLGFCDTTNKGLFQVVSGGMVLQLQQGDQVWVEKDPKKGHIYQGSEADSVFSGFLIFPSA
T1 sequence (P02746 28-253 limits assumed, chain 2 of 3): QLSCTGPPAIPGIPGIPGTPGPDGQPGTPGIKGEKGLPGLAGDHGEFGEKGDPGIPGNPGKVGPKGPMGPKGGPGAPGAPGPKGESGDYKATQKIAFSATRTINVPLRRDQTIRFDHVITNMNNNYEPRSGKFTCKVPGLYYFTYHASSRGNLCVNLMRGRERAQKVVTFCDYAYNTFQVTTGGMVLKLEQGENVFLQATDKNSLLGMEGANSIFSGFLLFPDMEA
T1 sequence (P02747 29-245 limits assumed, chain 3 of 3): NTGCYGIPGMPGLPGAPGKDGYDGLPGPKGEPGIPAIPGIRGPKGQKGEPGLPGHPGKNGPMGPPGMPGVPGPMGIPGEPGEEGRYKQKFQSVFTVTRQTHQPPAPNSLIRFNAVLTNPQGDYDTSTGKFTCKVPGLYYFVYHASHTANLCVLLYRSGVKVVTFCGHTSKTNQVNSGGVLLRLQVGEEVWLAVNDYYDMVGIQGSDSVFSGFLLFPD

B1: anti-C1q single-arm antibody (with IgG4 and Fcγ receptor binding site mutation) (antibody)
light: DVQITQSPSSLSASLGERATINCRASKSINKYLAWYQQKPGKAPKLLIYSGSTLQSGIPARFSGSGSGTDFTLTISSLEPEDFAMYYCQQHNEYPLTFGQGTKLEIKRTVAAPSVFIFPPSDEQLKSGTASVVCLLNNFYPREAKVQWKVDNALQSGNSQESVTEQDSKDSTYSLSSTLTLSKADYEKHKVYACEVTHQGLSSPVTKSFNRGEC
heavy: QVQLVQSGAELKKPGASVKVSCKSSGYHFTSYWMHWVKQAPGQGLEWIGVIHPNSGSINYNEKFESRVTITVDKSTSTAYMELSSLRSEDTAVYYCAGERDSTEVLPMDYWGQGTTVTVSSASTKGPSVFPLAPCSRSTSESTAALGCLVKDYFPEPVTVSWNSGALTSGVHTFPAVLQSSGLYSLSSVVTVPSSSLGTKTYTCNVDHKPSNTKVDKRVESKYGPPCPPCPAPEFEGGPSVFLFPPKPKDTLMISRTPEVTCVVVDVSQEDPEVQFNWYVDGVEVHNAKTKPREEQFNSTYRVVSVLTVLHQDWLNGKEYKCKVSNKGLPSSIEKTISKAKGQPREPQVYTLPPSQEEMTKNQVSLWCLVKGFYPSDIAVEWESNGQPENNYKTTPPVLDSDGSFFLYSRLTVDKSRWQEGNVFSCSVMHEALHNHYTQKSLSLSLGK
chain: ESKYGPPCPPCPAPEFEGGPSVFLFPPKPKDTLMISRTPEVTCVVVDVSQEDPEVQFNWYVDGVEVHNAKTKPREEQFNSTYRVVSVLTVLHQDWLNGKEYKCKVSNKGLPSSIEKTISKAKGQPREPQVYTLPPSQEEMTKNQVSLSCAVKGFYPSDIAVEWESNGQPENNYKTTPPVLDSDGSFFLVSRLTVDKSRWQEGNVFSCSVMHEALHNHYTQKSLSLSLGK
notes: The third chain is the N-terminally truncated heavy chain (hinge-CH2-CH3, hole mutations); also called single-arm molecule; anti-C1q single-arm antibody (monovalent)
Regarding B1, the “IC50 for inhibition of serum hemolysis” value in assay [1] lay within 3 to 10 nM. Besides, in [2], the “IC50 for hemolysis inhibition (nM), Human serum” value came out at 9.9 nM. Further, the “IC50 for hemolysis inhibition (nM), Cyno serum” value in [3] was found to be 5.5 nM. The “IC50 for hemolysis inhibition, Ratio Cyno:Human” value in assay [3] was determined as 0.6. Also, the EC50 in [4] is 150 to 400 nM; in assay [5] it was 378 nM; in assay [6], 178 nM; in [7] it was 0.05 nM; in [8], 150 to 400 nM. Moreover, in assay [9], the “fold weaker binding EC50 in cynomolgus serum compared to human serum” value lay within 1 to 2 fold. Further, in [10], the “Ratio Cyno:Human (binding EC50)” value was found to be 2.1.

Values taken from patent US12486322 (ANNEXON, dated 2025).
